Measurements published in the supplement of paper PMC9112550, “Optimization of the antimicrobial peptide Bac7 by deep mutational scanning” (BMC Biology, 2022).

Tested on: Escherichia coli TOP10
Test: shrunken log2 fold change of peptide-encoding DNA abundance (4.5 h post-induction vs induction); higher = less antimicrobial activity (less host growth inhibition)
Conditions: time post-induction: 4.5 h; library: site-saturation at positions 5, 18, 19, 20
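Further: peptides expressed intracellularly from a pBAD plasmid library in pooled LB shake-flask culture, induced with 0.3% L-arabinose, DNA abundance read by NGS, three biological replicates, DESeq2 with apeglm shrinkage.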

RRIRTRPPRLPRPRPRPDWGPRP
shrunken log2 fold change: 0.194

RRIRTRPPRLPRPRPRPDWWPRP
shrunken log2 fold change: 0.016

RRIRTRPPRLPRPRPRPDWYPRP
shrunken log2 fold change: -0.622

RRIRTRPPRLPRPRPRPDYRPRP
shrunken log2 fold change: 0.0112

RRIRTRPPRLPRPRPRPEAMPRP
shrunken log2 fold change: 0.0163

RRIRTRPPRLPRPRPRPEAPPRP
shrunken log2 fold change: 0.139

RRIRTRPPRLPRPRPRPEEHPRP
shrunken log2 fold change: 0.0062

RRIRTRPPRLPRPRPRPEENPRP
shrunken log2 fold change: -0.0317

RRIRTRPPRLPRPRPRPEFHPRP
shrunken log2 fold change: -0.351

RRIRTRPPRLPRPRPRPEFWPRP
shrunken log2 fold change: 0.445

RRIRTRPPRLPRPRPRPEGWPRP
shrunken log2 fold change: 0.688

RRIRTRPPRLPRPRPRPEHFPRP
shrunken log2 fold change: -0.115

RRIRTRPPRLPRPRPRPEHGPRP
shrunken log2 fold change: 0.0391

RRIRTRPPRLPRPRPRPEHKPRP
shrunken log2 fold change: -0.0645

RRIRTRPPRLPRPRPRPEHPPRP
shrunken log2 fold change: 0.716

RRIRTRPPRLPRPRPRPEHTPRP
shrunken log2 fold change: -0.174

RRIRTRPPRLPRPRPRPEIGPRP
shrunken log2 fold change: -0.103

RRIRTRPPRLPRPRPRPEKAPRP
shrunken log2 fold change: 0.00451

RRIRTRPPRLPRPRPRPEKSPRP
shrunken log2 fold change: 0.288

RRIRTRPPRLPRPRPRPELGPRP
shrunken log2 fold change: 0.248

RRIRTRPPRLPRPRPRPELSPRP
shrunken log2 fold change: -0.0448

RRIRTRPPRLPRPRPRPEMMPRP
shrunken log2 fold change: -0.0411

RRIRTRPPRLPRPRPRPEMSPRP
shrunken log2 fold change: -0.145

RRIRTRPPRLPRPRPRPENLPRP
shrunken log2 fold change: -0.0254

RRIRTRPPRLPRPRPRPETSPRP
shrunken log2 fold change: 0.199

RRIRTRPPRLPRPRPRPETYPRP
shrunken log2 fold change: -0.275

RRIRTRPPRLPRPRPRPEVDPRP
shrunken log2 fold change: 0.036

RRIRTRPPRLPRPRPRPEVVPRP
shrunken log2 fold change: 0.292

RRIRTRPPRLPRPRPRPEWDPRP
shrunken log2 fold change: 0.064

RRIRTRPPRLPRPRPRPEWKPRP
shrunken log2 fold change: -0.076

RRIRTRPPRLPRPRPRPEYKPRP
shrunken log2 fold change: 0.134

RRIRTRPPRLPRPRPRPFCKPRP
shrunken log2 fold change: -0.132

RRIRTRPPRLPRPRPRPFDDPRP
shrunken log2 fold change: 0.0564

RRIRTRPPRLPRPRPRPFEVPRP
shrunken log2 fold change: -0.101

RRIRTRPPRLPRPRPRPFGSPRP
shrunken log2 fold change: 0.0169

RRIRTRPPRLPRPRPRPFGVPRP
shrunken log2 fold change: 0.0203

RRIRTRPPRLPRPRPRPFGWPRP
shrunken log2 fold change: 0.189

RRIRTRPPRLPRPRPRPFHKPRP
shrunken log2 fold change: 0.0244

RRIRTRPPRLPRPRPRPFLLPRP
shrunken log2 fold change: -0.743

RRIRTRPPRLPRPRPRPFNPPRP
shrunken log2 fold change: -1.37

RRIRTRPPRLPRPRPRPFPTPRP
shrunken log2 fold change: 0.105

RRIRTRPPRLPRPRPRPFQKPRP
shrunken log2 fold change: -0.0018

RRIRTRPPRLPRPRPRPFRIPRP
shrunken log2 fold change: -0.0114

RRIRTRPPRLPRPRPRPFRNPRP
shrunken log2 fold change: 0.0337

RRIRTRPPRLPRPRPRPFRSPRP
shrunken log2 fold change: -0.144

RRIRTRPPRLPRPRPRPFSKPRP
shrunken log2 fold change: 0.0087

RRIRTRPPRLPRPRPRPFTNPRP
shrunken log2 fold change: -0.0559

RRIRTRPPRLPRPRPRPFVTPRP
shrunken log2 fold change: -0.298

RRIRTRPPRLPRPRPRPFWVPRP
shrunken log2 fold change: -0.0427

RRIRTRPPRLPRPRPRPFWYPRP
shrunken log2 fold change: -0.374

RRIRTRPPRLPRPRPRPFYPPRP
shrunken log2 fold change: -0.478

RRIRTRPPRLPRPRPRPGDEPRP
shrunken log2 fold change: 0.195

RRIRTRPPRLPRPRPRPGDRPRP
shrunken log2 fold change: 0.0976

RRIRTRPPRLPRPRPRPGEHPRP
shrunken log2 fold change: -0.187

RRIRTRPPRLPRPRPRPGENPRP
shrunken log2 fold change: 0.182

RRIRTRPPRLPRPRPRPGFQPRP
shrunken log2 fold change: -0.0547

RRIRTRPPRLPRPRPRPGGAPRP
shrunken log2 fold change: 0.38

RRIRTRPPRLPRPRPRPGGPPRP
shrunken log2 fold change: 0.257

RRIRTRPPRLPRPRPRPGGTPRP
shrunken log2 fold change: -0.00579

RRIRTRPPRLPRPRPRPGHFPRP
shrunken log2 fold change: -0.215

RRIRTRPPRLPRPRPRPGHIPRP
shrunken log2 fold change: -0.289

RRIRTRPPRLPRPRPRPGIHPRP
shrunken log2 fold change: -0.158

RRIRTRPPRLPRPRPRPGIYPRP
shrunken log2 fold change: -0.279

RRIRTRPPRLPRPRPRPGKEPRP
shrunken log2 fold change: -0.00507

RRIRTRPPRLPRPRPRPGKGPRP
shrunken log2 fold change: 0.0141

RRIRTRPPRLPRPRPRPGLCPRP
shrunken log2 fold change: -0.00367

RRIRTRPPRLPRPRPRPGNQPRP
shrunken log2 fold change: -0.0161

RRIRTRPPRLPRPRPRPGNVPRP
shrunken log2 fold change: 0.0939

RRIRTRPPRLPRPRPRPGPLPRP
shrunken log2 fold change: 0.185

RRIRTRPPRLPRPRPRPGPVPRP
shrunken log2 fold change: 0.141

RRIRTRPPRLPRPRPRPGRGPRP
shrunken log2 fold change: 0.605

RRIRTRPPRLPRPRPRPGSLPRP
shrunken log2 fold change: -0.0994

RRIRTRPPRLPRPRPRPGTKPRP
shrunken log2 fold change: -0.122

RRIRTRPPRLPRPRPRPGVRPRP
shrunken log2 fold change: 0.272

RRIRTRPPRLPRPRPRPGVVPRP
shrunken log2 fold change: 0.0177

RRIRTRPPRLPRPRPRPGWFPRP
shrunken log2 fold change: 0.461

RRIRTRPPRLPRPRPRPGWLPRP
shrunken log2 fold change: 0.445

RRIRTRPPRLPRPRPRPGYCPRP
shrunken log2 fold change: -0.184

RRIRTRPPRLPRPRPRPGYQPRP
shrunken log2 fold change: -0.0553

RRIRTRPPRLPRPRPRPGYTPRP
shrunken log2 fold change: 0.0635

RRIRTRPPRLPRPRPRPHCHPRP
shrunken log2 fold change: -0.0122

RRIRTRPPRLPRPRPRPHCSPRP
shrunken log2 fold change: -0.0966

RRIRTRPPRLPRPRPRPHDNPRP
shrunken log2 fold change: -0.574

RRIRTRPPRLPRPRPRPHETPRP
shrunken log2 fold change: -0.00261

RRIRTRPPRLPRPRPRPHFAPRP
shrunken log2 fold change: -0.227

RRIRTRPPRLPRPRPRPHFEPRP
shrunken log2 fold change: -0.323

RRIRTRPPRLPRPRPRPHICPRP
shrunken log2 fold change: -0.13

RRIRTRPPRLPRPRPRPHIWPRP
shrunken log2 fold change: -0.103

RRIRTRPPRLPRPRPRPHKCPRP
shrunken log2 fold change: 0.215

RRIRTRPPRLPRPRPRPHKDPRP
shrunken log2 fold change: -0.973

RRIRTRPPRLPRPRPRPHLEPRP
shrunken log2 fold change: -0.0891

RRIRTRPPRLPRPRPRPHLFPRP
shrunken log2 fold change: -0.111

RRIRTRPPRLPRPRPRPHMAPRP
shrunken log2 fold change: -0.123

RRIRTRPPRLPRPRPRPHNFPRP
shrunken log2 fold change: -0.0359

RRIRTRPPRLPRPRPRPHNHPRP
shrunken log2 fold change: -0.802

RRIRTRPPRLPRPRPRPHPEPRP
shrunken log2 fold change: -0.0834

RRIRTRPPRLPRPRPRPHQMPRP
shrunken log2 fold change: 0.0521

RRIRTRPPRLPRPRPRPHQQPRP
shrunken log2 fold change: -0.0314

RRIRTRPPRLPRPRPRPHRCPRP
shrunken log2 fold change: -0.0268

RRIRTRPPRLPRPRPRPHRDPRP
shrunken log2 fold change: 0.129

RRIRTRPPRLPRPRPRPHTQPRP
shrunken log2 fold change: -0.0664

RRIRTRPPRLPRPRPRPHYAPRP
shrunken log2 fold change: -0.11

RRIRTRPPRLPRPRPRPHYCPRP
shrunken log2 fold change: -0.418

RRIRTRPPRLPRPRPRPHYGPRP
shrunken log2 fold change: -0.0891

RRIRTRPPRLPRPRPRPIFLPRP
shrunken log2 fold change: -0.145

RRIRTRPPRLPRPRPRPIHDPRP
shrunken log2 fold change: -0.0511

RRIRTRPPRLPRPRPRPIIHPRP
shrunken log2 fold change: -0.937

RRIRTRPPRLPRPRPRPILPPRP
shrunken log2 fold change: -0.066

RRIRTRPPRLPRPRPRPIMHPRP
shrunken log2 fold change: -0.176

RRIRTRPPRLPRPRPRPIMLPRP
shrunken log2 fold change: -0.32

RRIRTRPPRLPRPRPRPINDPRP
shrunken log2 fold change: -0.293

RRIRTRPPRLPRPRPRPINHPRP
shrunken log2 fold change: -0.718

RRIRTRPPRLPRPRPRPINVPRP
shrunken log2 fold change: -0.509

RRIRTRPPRLPRPRPRPIPVPRP
shrunken log2 fold change: -0.412

RRIRTRPPRLPRPRPRPISFPRP
shrunken log2 fold change: -0.199

RRIRTRPPRLPRPRPRPISHPRP
shrunken log2 fold change: -0.328

RRIRTRPPRLPRPRPRPISSPRP
shrunken log2 fold change: -0.0114

RRIRTRPPRLPRPRPRPITQPRP
shrunken log2 fold change: -0.168

RRIRTRPPRLPRPRPRPIWGPRP
shrunken log2 fold change: -0.144

RRIRTRPPRLPRPRPRPIYNPRP
shrunken log2 fold change: -0.254

RRIRTRPPRLPRPRPRPKAFPRP
shrunken log2 fold change: -0.149

RRIRTRPPRLPRPRPRPKASPRP
shrunken log2 fold change: -0.0647

RRIRTRPPRLPRPRPRPKFAPRP
shrunken log2 fold change: 0.232

RRIRTRPPRLPRPRPRPKGAPRP
shrunken log2 fold change: 0.351

RRIRTRPPRLPRPRPRPKGKPRP
shrunken log2 fold change: 0.34

RRIRTRPPRLPRPRPRPKIAPRP
shrunken log2 fold change: -0.0425

RRIRTRPPRLPRPRPRPKKQPRP
shrunken log2 fold change: -0.15

RRIRTRPPRLPRPRPRPKKYPRP
shrunken log2 fold change: -0.627

RRIRTRPPRLPRPRPRPKQRPRP
shrunken log2 fold change: 0.166

RRIRTRPPRLPRPRPRPKRAPRP
shrunken log2 fold change: 0.273

RRIRTRPPRLPRPRPRPKRHPRP
shrunken log2 fold change: 0.222

RRIRTRPPRLPRPRPRPKRQPRP
shrunken log2 fold change: 0.562

RRIRTRPPRLPRPRPRPKSSPRP
shrunken log2 fold change: -0.0371

RRIRTRPPRLPRPRPRPKTIPRP
shrunken log2 fold change: -0.292

RRIRTRPPRLPRPRPRPKTQPRP
shrunken log2 fold change: 0.19

RRIRTRPPRLPRPRPRPKVDPRP
shrunken log2 fold change: 0.195

RRIRTRPPRLPRPRPRPKVGPRP
shrunken log2 fold change: 0.2

RRIRTRPPRLPRPRPRPKVSPRP
shrunken log2 fold change: -0.0491

RRIRTRPPRLPRPRPRPKWSPRP
shrunken log2 fold change: -0.227

RRIRTRPPRLPRPRPRPKYGPRP
shrunken log2 fold change: -0.0738

RRIRTRPPRLPRPRPRPLAFPRP
shrunken log2 fold change: 2.19

RRIRTRPPRLPRPRPRPLAKPRP
shrunken log2 fold change: 0.0419

RRIRTRPPRLPRPRPRPLCIPRP
shrunken log2 fold change: -0.693

RRIRTRPPRLPRPRPRPLEEPRP
shrunken log2 fold change: -0.0207

RRIRTRPPRLPRPRPRPLEFPRP
shrunken log2 fold change: -0.0903

RRIRTRPPRLPRPRPRPLGAPRP
shrunken log2 fold change: 0.0945

RRIRTRPPRLPRPRPRPLHRPRP
shrunken log2 fold change: -0.287

RRIRTRPPRLPRPRPRPLINPRP
shrunken log2 fold change: -0.692

RRIRTRPPRLPRPRPRPLKQPRP
shrunken log2 fold change: 0.0283

RRIRTRPPRLPRPRPRPLLWPRP
shrunken log2 fold change: 0.223
